The results in this text go back to article PMC2783927.

For assay [1], the target named is IL-17RA extracellular domain, C-terminally biotinylated (human) (UniProt Q96F46). The experiment in a line: SPR. A general note: In SPR one partner is held on a chip, and binding of the other changes the refractive index at the surface.
For assay [2], the target named is IL-17RC extracellular domain, C-terminally biotinylated (UniProt Q8NAC3). Description: SPR.
For assay [3], the target named is IL-17F homodimer (for binding experiments) (human) (UniProt Q96PD4). The experiment in a line: SEC. (In general: Size exclusion chromatography separates by hydrodynamic size, large species first.)
For assay [4], the target named is IL-17RB-IL-25 complex, pre-assembled on the SPR chip (UniProt Q9NRM6). The experiment in a line: SPR.
Chain of UniProt Q9NRM6 (Q9NRM6 18-292, chain 1 of 2): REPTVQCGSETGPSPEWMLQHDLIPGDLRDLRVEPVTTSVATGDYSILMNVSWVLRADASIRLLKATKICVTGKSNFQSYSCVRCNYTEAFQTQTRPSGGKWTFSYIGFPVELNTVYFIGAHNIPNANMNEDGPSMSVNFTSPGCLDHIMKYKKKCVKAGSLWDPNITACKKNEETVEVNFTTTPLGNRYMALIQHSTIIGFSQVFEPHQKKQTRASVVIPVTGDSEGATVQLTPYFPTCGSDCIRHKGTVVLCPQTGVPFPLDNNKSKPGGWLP
Chain of UniProt Q9NRM6 (Q9H293 33-177, chain 2 of 2, further chain): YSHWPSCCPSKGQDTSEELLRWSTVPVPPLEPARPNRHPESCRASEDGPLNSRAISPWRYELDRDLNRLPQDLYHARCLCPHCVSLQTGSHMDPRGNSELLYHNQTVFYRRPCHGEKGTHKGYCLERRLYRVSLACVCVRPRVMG
Assay [5] has as its target IL-17RC-IL-17A complex, pre-assembled on the SPR chip (UniProt Q8NAC3). Description: SPR.
The target of assay [6] is IL-17RC-IL-17F complex, pre-assembled on the SPR chip (UniProt Q8NAC3). Description: SPR.
In assay [7] the target is T1, IL-17F homodimer (crystallised form: tag cleaved, lysine-methylated) (human), Q96PD4.
T1 chain: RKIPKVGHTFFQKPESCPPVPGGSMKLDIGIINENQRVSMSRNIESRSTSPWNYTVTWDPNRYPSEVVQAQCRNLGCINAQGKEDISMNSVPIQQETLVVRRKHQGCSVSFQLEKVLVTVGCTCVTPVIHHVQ
The experiment in a line: SDS-PAGE. Particulars: remark: other sources report otherwise.

The target of assay [8] is T1, IL-17F homodimer (crystallised form: …). Description: crystal structure. Particulars: remark: other sources report otherwise.

“IL-17A homodimer (from UniProt Q16552 24-155) (ligand)”: the dissociation constant Kd is 0.0028 µM in assay [1] and 0.0012 µM in assay [2].

On to “IL-17F homodimer (for binding experiments) (from UniProt Q96PD4 31-163) (ligand)”, for which the Kd in assay [1] is 0.292 µM; in assay [2] it was 0.0044 µM.

“IL-17RA extracellular domain, soluble (without BirA ligase tag) (receptor)”: in assay [3], the stoichiometry N (receptor per IL-17 dimer) was found to be 1. This molecule had a stoichiometry N (receptors per IL-17 dimer) in assay [3] of 2. Moreover, the Kd in assay [4] is 14.1 µM; in assay [5], 0.162 µM; in assay [6] it was 23.8 µM.

B1: IL-17RC extracellular domain, soluble (without BirA ligase tag) (receptor)
chain: LERLVGPQDATHCSPVSLEPWGDEERLRVQFLAQQSLSLAPVTAATARTALSGLSGADGRREERGRGKSWVCLSLGGSGNTEPQKKGLSCRLWDSDILCLPGDIVPAPGPVLAPTHLQTELVLRCQKETDCDLCLRVAVHLAVHGHWEEPEDEEKFGGAADSGVEEPRNASLQAQVVLSFQAYPTARCVLLEVQVPAALVQFGQSVGSVVYDCFEAALGSEVRIWSYTQPRYEKELNHTQQLPDCRGLEVWNSIPSCWALPWLNVSADGDNVHLVLNVSEEQHFGLSLYWNQVQGPPKPRWHKNLTGPQIITLNHTDLVPCLCIQVWPLEPDSVRTNICPFREDPRAHQNLWQAARLQLLTLQSWLLDAPCSLPAEAALCWRAPGGDPCQPLVPPLSWENVTVDKVLEFPLLKGHPNLCVQVNSSEKLQLQECLWADSLGPLKDDVLLLETRGPQDNRSLCALEPSGCTSLPSKASTRAARLGEYLLQDLQSGQCLQLWDDDLGALWACPMDKYIHKR
Consider B1, for which the Kd in assay [5] was determined as 8 µM.

B2: IL-17F homodimer (crystallised form: tag cleaved, lysine-methylated), Q96PD4 31-163 (ligand)
chain: RKIPKVGHTFFQKPESCPPVPGGSMKLDIGIINENQRVSMSRNIESRSTSPWNYTVTWDPNRYPSEVVQAQCRNLGCINAQGKEDISMNSVPIQQETLVVRRKHQGCSVSFQLEKVLVTVGCTCVTPVIHHVQ
modifications: here or on the partner: reductive lysine methylation of the complex; reductive lysine methylation of the complex
For B2, the stoichiometry N in assay [7] and in assay [8] was 2 throughout.

One may read the Kd as the free concentration of one partner at which half of the binding sites on the other are occupied at equilibrium, for simple one-to-one binding. A higher Kd goes with a looser complex. What is called stoichiometry N is a count of units in the complex or per binding partner.
